To fix the notation:
B1: ZNF263 (parent)
chain: HLTRHQRTHTGEKPYKCTLCGENF
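Further: lentivirally expressed fusions sorted by FACS into six bins by GFP to DsRed ratio, PSI derived from sequencing read proportions per bin multiplied by bin number.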

The data set covers variants of B1. As to the kind of experiment: protein stability index of a GFP-peptide fusion (GPS, HEK-293T) (PSI 1-6); higher = more stable. To be noted: c terminus: a fixed tail appended.
Consider HLTRHQRTHTGEKPYKCTQCGENF [L19Q], for which the protein stability index came out at 2.98. Take HLTRHQRTHTGEKPYKCTHCGENF [L19H]: the protein stability index was 2.94. The same measure for HLTRHQRTLTGEKPYKCTLCGENF [H9L]: 2.51; for HLTRHQRTKTGEKPYKCTLCGENF [H9K]: 3.58. Then HLTRHQRTYTGEKPYKCTLCGENF [H9Y], with 2.19; and HLTRHQRTNTGEKPYKCTLCGENF [H9N], with 2.79. The same measure for HLTRHQRTDTGEKPYKCTLCGENF [H9D]: 2.83; for HLTRHQRTWTGEKPYKCTLCGENF [H9W]: 1.89. In the case of HLTRHQRTFTGEKPYKCTLCGENF [H9F], the protein stability index came to 2.22. The same measure for HLTRHQRTHLGEKPYKCTLCGENF [T10L]: 1.98. The same measure for HLTRHQRTHIGEKPYKCTLCGENF [T10I]: 3.13; for HLTRHQRTHCGEKPYKCTLCGENF [T10C]: 2.96; for HLTRHQRTHMGEKPYKCTLCGENF [T10M]: 2.48.

As to HLTRHQRTHHGEKPYKCTLCGENF [T10H], the protein stability index amounted to 3.19. Then HLTRHQRTHTGEKPYKETLCGENF [C17E], with 3.96; and HLTRHQRTHTGEKPYKSTLCGENF [C17S], with 3.4; and HLTRHQRTHTGEKPYKDTLCGENF [C17D], with 3.73.

With HLTRHQRTHTGEKPYKKTLCGENF [C17K], the protein stability index was found to be 3.71.

With HLTRHQRTHTGEKPYKGTLCGENF [C17G], the protein stability index came to 3.52. The same measure for HLTRHQRTHTGEKPYKRTLCGENF [C17R]: 2.98; for HLTRHQRTHTGEKPYKATLCGENF [C17A]: 3.24.

As to HLTRHQRTHTGEKPYKCGLCGENF [T18G], the protein stability index was 2.45. The same measure for HLTRHQRTHTGEKPYKCNLCGENF [T18N]: 2.81; for HLTRHQRTHTGEKPYKCQLCGENF [T18Q]: 2.68; for HLTRHQRTHTGEKPYKCMLCGENF [T18M]: 2.42.

For the variant HLTRHQRTHTGEKPYKCPLCGENF [T18P], the protein stability index was found to be 2.4. The same measure for HLTRHQRTHTGEKPYKCHLCGENF [T18H]: 2.65; for HLTRHQRTHTGEKPYKCYLCGENF [T18Y]: 3.09; for HLTRHQRTHTGEKPYKCFLCGENF [T18F]: 2.56. Then HFTRHQRTHTGEKPYKCTLCGENF [L2F], with 2.9. As for HSTRHQRTHTGEKPYKCTLCGENF [L2S], the protein stability index is 3.8. HHTRHQRTHTGEKPYKCTLCGENF [L2H]: the protein stability index worked out at 3.53.

Consider HVTRHQRTHTGEKPYKCTLCGENF [L2V], for which the protein stability index amounted to 3.39. Then HRTRHQRTHTGEKPYKCTLCGENF [L2R], with 2.79; and HQTRHQRTHTGEKPYKCTLCGENF [L2Q], with 3.22.

For HLTRHQRCHTGEKPYKCTLCGENF [T8C], the protein stability index is 2.99. Then HLTRHQRIHTGEKPYKCTLCGENF [T8I], with 3.1; and HLTRHQRMHTGEKPYKCTLCGENF [T8M], with 2.5. Then HLTRHQRGHTGEKPYKCTLCGENF [T8G], with 2.9; and HLTRHQRHHTGEKPYKCTLCGENF [T8H], with 2.78. For the variant HLTRHQRRHTGEKPYKCTLCGENF [T8R], the protein stability index worked out at 3.49.

On to HLTRHQRAHTGEKPYKCTLCGENF [T8A], for which the protein stability index was 3.44. HLTRHQRYHTGEKPYKCTLCGENF [T8Y]: the protein stability index came to 2.25. With HLTRHQREHTGEKPYKCTLCGENF [T8E], the protein stability index was 3.4.

For HLTRHQITHTGEKPYKCTLCGENF [R7I], the protein stability index stood at 2.4. For the variant HLTRHQWTHTGEKPYKCTLCGENF [R7W], the protein stability index stood at 2.12. The same measure for HLTRHQGTHTGEKPYKCTLCGENF [R7G]: 3.39; for HLTRHQFTHTGEKPYKCTLCGENF [R7F]: 2.49. Then HLTRHQATHTGEKPYKCTLCGENF [R7A], with 2.94.

Take HLTRHQNTHTGEKPYKCTLCGENF [R7N]: the protein stability index came to 3.51. Consider HLTRHQCTHTGEKPYKCTLCGENF [R7C], for which the protein stability index stood at 4.78. The same measure for HLTRHQQTHTGEKPYKCTLCGENF [R7Q]: 2.96. Consider HLTRHQTTHTGEKPYKCTLCGENF [R7T], for which the protein stability index amounted to 3.6. The same measure for HLTRHQMTHTGEKPYKCTLCGENF [R7M]: 2.94; for HLTRHQSTHTGEKPYKCTLCGENF [R7S]: 3.36; for HLTRHQVTHTGEKPYKCTLCGENF [R7V]: 2.96. Then HLTRHDRTHTGEKPYKCTLCGENF [Q6D], with 2.84.

As for HLTRHYRTHTGEKPYKCTLCGENF [Q6Y], the protein stability index was 2.7. As for HLTRHRRTHTGEKPYKCTLCGENF [Q6R], the protein stability index was 3.19. Then HLTRHSRTHTGEKPYKCTLCGENF [Q6S], with 3.68.

Turning to HLTRHTRTHTGEKPYKCTLCGENF [Q6T], the protein stability index stood at 2.75. For HLTRHMRTHTGEKPYKCTLCGENF [Q6M], the protein stability index stood at 2.6. Then HLTRHGRTHTGEKPYKCTLCGENF [Q6G], with 2.85; and HLTRHWRTHTGEKPYKCTLCGENF [Q6W], with 2.04. Consider HLTRHERTHTGEKPYKCTLCGENF [Q6E], for which the protein stability index was 2.71. Regarding HLTRHQRTHTGEKPYKCTLQGENF [C20Q], the protein stability index worked out at 3.44.

With HLTRHQRTHTGEKPYKCTLKGENF [C20K], the protein stability index worked out at 3.12. HLTRHQRTHTGEKPYKCTLYGENF [C20Y]: the protein stability index was determined as 2.77. Then HLTRHQRTHTGEKPYKCTLTGENF [C20T], with 3.93. The same measure for HLTRHQRTHTGEKPYKCTLEGENF [C20E]: 4.11; for HLTRHQRTHTGEKPYKCTLMGENF [C20M]: 2.93.

For the variant HLTRHQRTHTGEKPYKCTLIGENF [C20I], the protein stability index is 2.57. Then HLTRHQRTHTGEKPYKCTLGGENF [C20G], with 2.92; and HLTRHQRTHTGEKPYKCTLRGENF [C20R], with 3.03. The same measure for HLTRHQRTHTGEKPLKCTLCGENF [Y15L]: 2.81. The same measure for HLTRHQRTHTGEKPGKCTLCGENF [Y15G]: 3.29.

In the case of HLTRHQRTHTGEKPRKCTLCGENF [Y15R], the protein stability index is 2.93. On to HLTRHQRTHTGEKPTKCTLCGENF [Y15T], for which the protein stability index turned out to be 3. As to HLTRHQRTHTGEKPAKCTLCGENF [Y15A], the protein stability index is 3.23.

As for HLTRHQRTHTGEAPYKCTLCGENF [K13A], the protein stability index is 3.28.

In the case of HLTRHQRTHTGEGPYKCTLCGENF [K13G], the protein stability index was found to be 2.92. HLTRHQRTHTGEVPYKCTLCGENF [K13V]: the protein stability index turned out to be 2.69. The same measure for HLTRHQRTHTGEPPYKCTLCGENF [K13P]: 2.88; for HLTRHQRTHTGEWPYKCTLCGENF [K13W]: 2.5.

Take HLTRHQRTHTGEFPYKCTLCGENF [K13F]: the protein stability index was 2.65. The same measure for HLTRHQRTHTGERPYKCTLCGENF [K13R]: 2.98; for HLTRHQRTHTGEIPYKCTLCGENF [K13I]: 2.13; for HLTRHQRTHTGENPYKCTLCGENF [K13N]: 3.16.

Turning to HLTRHQRTHTGEKPYKCTLCDENF [G21D], the protein stability index amounted to 3.26. The same measure for HLTRHQRTHTGEKPYKCTLCYENF [G21Y]: 2.97. As for HLTRHQRTHTGEKPYKCTLCRENF [G21R], the protein stability index was found to be 2.46. The same measure for HLTRHQRTHTGEKPYKCTLCCENF [G21C]: 2.73; for HLTRHQRTHTGEKPYKCTLCMENF [G21M]: 3.06; for HLTRHQRTHTGEKPYKCTLCVENF [G21V]: 2.26.

For the origin of these results see the supplement of paper PMC10567573.
